Data: a protein production outcome set (Wang et al. 2014)

Assay: label from the status in PepcDB records
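Also: failed if final PepcDB status was selected cloned or expressed and not failed if soluble or beyond.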

| Sequence | protein production |
| --- | --- |
| MDAETAESLKLLKNISLYTETYGCTYNAGDTEKLMEIARNQGCVPASSAEEADAILINTCVVIDKTEQHMYERLDLYAGKLLFVTGCLPPVAADVLRTRYPKIHIIDPALIHSCYMEVGTAHVGTNAVLQIARGCNGHCTYCITRLARGKLVSFSAEDIVRQAKSIVEAGATEIQLTAQDTSSWGLDRNDGLRLPDLLRQLCAIPGNFMIRIGMANPDTLLPILDDFLDALKDPKIFLFLHIPVQSGSDSVLRLMGRRYTSAQYEEICQRARKAFPEIRISTDYIAGFSGETDEDAAKSAEQIRRTRPGKVNITRFSVRPNTPAAKMKKIPEPIKKQRSRELTDAANEVYDANNEALIGHIMTAVVTEVVKAGSVTARDRTYQNIVIMENLEIGTEITVKITGHRRHYLIGERIVP | failed |
| MDALIMAGGKGTRLKENVEKPILNICEKPMIDYVIDSLLNSKIEKIYVAVSIHTPKTKEYLEKKYRLDRNYNPKIDIICTSGTNYVDDLNECMEFFKEPFLILSSDIPTIKPKVINSIIQDYLFVNNSCNRIESFCVVTKDDDYVGTPSINMGGYIPLGINILTPKHGEQTEILHVIKDIIVNVNTLSDKKLVETLINKVVELEHHHHHH | not failed |
| MDALLILGGLLLMVAGYIWVIVLAFGTGLLWGYGSLFPPVALAYIGVHWRTARKGVGLAALGCIPLVVGLALLASHDAARLEAILSLRWLKPEARPPAELAIALSGEFNGKPFAPQSGELIGGVLSLRQGHDFYAQRELQIRLPAQPLGALRLDVLPEDGGALPEVELSWLQPDQDLPEARRLLRGYTLHLDLRPKAPNRLEGEFHLSLPSDYRTTLSGHVELYTDRLRYRHGKVDLGYDSDDTLALVLRDYLQRRFASRDVSLVRAPSWRAASHARPLRIEALVAGQAQVLELTLEKNARREWTVRGDAFPALPAEPATVAAAAPPEPQALPAPGNATLDLELVQVEPQRYSQRLVKATTVRGRIAEGRFTGLDSEGRLVIRREMPGAGEASYLLRPAEIARLELLER | failed |
| MDAREWAMLIALSLLWGGSFFFIGVAVKELPPVTIVTLRVSLAAVALLVVCRIMGLRLPREWAVWRAFFGMGLLNNIIPFCLIVWGQTQIASGLASILNATTPLFTVIVAHFLTADEKMTGNKLAGVLIGFVGVATMIGPAAFGGSSGLWGQIAILGAAISYSFAGIFGRRFKAMGVPPLMTATGQISSSTLMLIPAALLIDKPWTLAMPGLGTWGALIGIALLSTALAYLIFFRILASAGATNLALVTFLIPVSAILLGSLILGEQLEIKHFAGMAMIAAGLAAIDGRLPVKLRSLLRNAPA | failed |
| MDARFLYPLESCKIIHLLRHGQALHNVEAEKDRNALLSPHLFDAPLTDHGHQQVENLRERVVSSGLLKRVELVVTSPLFRTMQTAVGVFGNEYKQSSMTSSPPILALEVARDRNGVRPPDMRRNVSEYQTLFPTIDFSQIESEEDNLWRPDVRESEEEILARGLEFMKWLWKRPEKEVAVVSHGIVLQHMLYVFANDCDLSIRHELCKRFANCEIRTVVIVDKGMASSTEN | failed |
| MDATISVVCYKSKTLSNGEHPLMLRISKDGKKKYQSLGISVNPKFWDFQKNKPKPKCPNLEYLQKIILDKKLELQKKMLEIKSDQKEYSAATLIEANEKLQVAKNVDCFYKEIIAQCEINNKCGNRLVYLNSYNSLKRFTNGKLEIPFNTINVAWLEKYEKWLRSNGNKETTISLMFRTLRSTYNKAIKERCAHLSDYPFQEYKISKFDTSTQKRAIAKTDMLKFTETSQPIGQKKYVELSKDIFIFSYLCGGINFTDIANLTQENIVNGRLHYIRQKTGKLIKIGIPQEAMQIIKKYTDESNGYLFPILNVKVHKTALQKQNRIHKIRGKVNDILKTLGKRLGIEANITTYVARHSFASVLKKSGVNIALISEALGHSDLATTQIYLDSFDNEQVDEAMKNLL | failed |
| MDDIFTQCREGNAVAVRLWLDNTENDLNQGDDHGFSPLHWACREGRSAVVEMLIMRGARINVMNRGDDTPLHLAASHGHRDIVQKLLQYKADINAVNEHGNVPLHYACFWGQDQVAEDLVANGALVSICNKYGEMPVDKAKAPLRELLRERAEKMGQNLNRIPYKDTFWKGTTRTRPRNGTLNKHSGIDFKQLNFLTKLNENHSGELWKGRWQGNDIVVKVLKVRDWSTRKSRDFNEECPRLRIFSHPNVLPVLGACQSPPAPHPTLITHWMPYGSLYNVLHEGTNFVVDQSQAVKFALDMARGMAFLHTLEPLIPRHALNSRSVMIDEDMTARISMADVKFSFQCPGRMYAPAWVAPEALQKKPEDTNRRSADMWSFAVLLWELVTREVPFADLSNMEIGMKVALEGLRPTIPPGISPHVCKLMKICMNEDPAKRPKFDMIVPILEKMQDK | failed |
| MDDPFASLEPLAVAPSGPEGVRAQFDQMEDIPPPRPRQPPPAQEDPVEIEVTEDGVARAFTEKYGGTLRFDHDAGRWYHWQEDHWQADTTSRAFEYCRRLARLASEGAKHSLLSTARKASFAGGVERLARADPAHAVTQEAWDRDPWLVACPGETVDLRTGRSAVPRPEDGITRRVAVAPAAQETCPTWWQFLEDATGADSSVMRFLQQWAGYSLTGITREHTLVFLYGDGGNGKSVFINTLTGLLGDYAATAGMETFTASKSDRHPTDLAMLAGARLVAASETEEGRAWAESRIKQMTGGDRITARFMRRDFFTYTPQFKLTLVGNHRPALANVKPVEPWALVVPAELETVAQQVLAEIAAAAVSDVNPFSGTLELIVEPGLTSATGWYLIGNPALHDGLAHAFLDGQSAPRIETRAGWNTLGMEFRLTWAVDAKFIGTASWFRNPGASGCPRCRPRNAQRQGVALLCLARRSEVLDRLEHHHHHH | failed |
| MDDSMTSIKVHCLVSCFCEIIKRRSDIDFRPFYFGLWDGDFDITEGGIISYHSENINHDHYLLWYEKLYGMKVNEWYDHAKDKDSNVETFLQLVENKPENRYVIVMVDMSLLPERENKFHQKPFPHYLMISETEKEEEWFMLDPDFRWEGNMEREKVLYSVQDNPFGGGYFIDVEEIQEPTAEMVASYFIETFKRNDNELTMELKNLIIKMANEEEGYLLSGLVAAVKQIPVLAIRKYSYEHAFAYFRETLQYSEQEFDYWCDRVEDIVQGFTNVQYRAIKMAMTNNKGMLLSIVEKLDEMNAIELQIKTELERQFLSWKEMKSNESVLVF | failed |
| MDDVLRRNPLFAALDDEQSAELRASMSEVTLARGDTLFHEGDPGDRLYVVTEGKVKLHRTSPDGRENMLAVVGPSELIGELSLFDPGPRTATGTALTEVKLLALGHGDLQPWLNVRPEVATALLRAVARRLRKTNDAMSDLVFSDVPGRVARALLDLSRRFGVQSEEGIHVVHDLTQEELAQLVGASRETVNKALADFAQRGWLRLEARAVILLDVERLAKRSR | failed |
| MDEFDYVRRKLIERILHLTEKQPVVRPLPGLTVGRRESPTEPSTYILPPSICIAVQGAKRVLIGEEYYVYDVENFLLNSFDVPVVAQVIEASKEKPYIGMTWEIDMEILMEIVVEQKLNTRPITSSRGTSLGKVTHQLLDAFRRMLELLDEPEHISALLPVIKKEIIYRLLVSEQGPRL | failed |
| MDEKLVKEVIFSFREVQRKTHHVLAEEAANREITTTQLLAIRELQKESDLTLGELAERMKLGKSTVSGIVDRLVKAGFLKRTRNESNRRALSLELTEKGATKAAETYHVFFNRLEPILEIGEERLKEMLEMHQEIITILEREGARD | failed |
| MDEKRLKILEAAMEEFTEKGYQAASTNKICAKAGVSKGLIFHYFGSKEKLYIAAVSYAVDFATNEVSLEEKRWSDFVEMAIWSTKMKLDFNRKYPAIFGLIMQAYGNPPPELKGKLDGFFDKAIERSEAQMNQVLNEMQLKKDVNMDAARKVMEALFQHITEKSTVFLQRHPNATMEDFIPLANDFTEMMRIVEFGICEEKKDSGE | failed |
| MDENSLIYGLELQARALTPQYGESNDVCFFIATNSLKPTNQVHLIQYEEEQGSVQSKVFEHALGEVWKLNSCPRNPRLLASVYNVQKGAQVLTKAALFTLPENLNPDPEQLKSEYLPWEQVEVLDTEALGERVKTIEFHPNQDTLACVVDNKVAVMQRAESSTRVVAEVPASGSSSGSAKHTQHFTSGKWSHHHQGHQFLTLQDGNLSAYDVRDTQHCAWSINDAHGQMVRDLDCNPNKQCHLVTGGDDGYLRIWDCRMPKAPVFERSDHSHWVWCVRFNTFHDQLILSSSSDCKVLLTCAGSVSSETQVQAGLDESNFSGADAEERHKLLPDGLLQTFDQHEDSVYCAEWSNVDPWIFASLSYDGRVIISKVPKQYKYQIIF | failed |
| MDEQVIFTTNTSGTIASVHSFEQINLRQCSTQSRNSCVQVGNKYLFIAQAQKALINVYNLSGSFKRESVEQRLPLPEILKCLEVVENDGVQYDRIQGVNHNLPDFNLPYLLLGSTESGKLYIWELNSGILLNVKPMAHYQSITKIKSILNGKYIITSGNDSRVIIWQTVDLVSASNDDPKPLCILHDHTLPVTDFQVSSSQGKFLSCTDTKLFTVSQDATIRCYDLSLIGSKKKQKANENDVSIGKTPVLLATFTTPYSIKSIVLDPADRACYIGTAEGCFSLNLFYKLKGNAIVNLLQSAGVNTVQKGRVFSLVQRNSLTGGENEDLDALYAMGQLVCENVLNSNVSCLEISMDGTLLLIGDTEGKVSIAEIYSKQIIRTIQTLTTSQDSVGEVTNLLTNPYRLERGNLLFEGESKGKQPSNNNGHNFMKIPNLQRVIFDGKNKGHLHDIWYQIGEPEAETDPNLALPLNDFNAYLEQVKTQESIFSHIGKVSSNVKVIDNKIDATSSLDSNAAKDEEITELKTNIEALTHAYKELRDMHEKLYEEHQQMLDKQ | failed |
| MDERPEGGDAQGAREGRDARGDGEPDEVVSGELLPYDDIAGVAAASVGLHALADDLAGERRELAVELRKFFVVLRLSVRRYAALRPYSPSSVSRYLSGDLVAPDHFVATLMDDVGRELGRPLSAQARGRVTGLQRAALRSSNSRAWKVQELEDRLAAAHQDAQVARTQADAVATLLHAERQRVAGVEEERQELARTLEAHQATSGAELDVLRAQQHRVRAERDTLRRRVADLEAALAAAEHRVAEAEQRCADLEHELLTADAAAAAEESAAAEQERARQQAELGSLRDEVARLRVAAERVPETSPARGTQAPRTSVHGAEADATGPVSGDRSAAAPADVPGAASSVTIVYAGFNRAWAAWIGDRLERWGVRAVLMLWDVPADIPLIDLLRDLKLAEGRILIVVSEWYFQLGLRSHDEWNEALREVVAPDPSRFVAVSVTNAPVPSAAAVLAAVDLTDTGADEAERRLLARLVGLPGDSLPAASGGERRGPRFPAATPEVWGGVPRRNTRFTGRESLLSDAYSLLKGAEPGAGVLTLHGMSGVGKTQLAVEYVYRFSSEYDVVWWVGADNRGVFRQTLAELASRLGLSTGAEYGERLRAVRDSLRRGDPYARWLLILDGADDPDQIEDLVPTGPGHVLITSRNLKWGEHNSELLEVPVYDRPESVAFIRRRAPRLAEADADRLAEALEDLPLLLDQTAGWLNDSDLSVGEYIALLDGGIDQDVVKVSADFPIAFRTAWSILLNKVRETVPEAVDLLRLCTFFAPGLIPVRFLREMPHNELPETITGLLNDRLLWNKAIHQLRQYSVVRLESHEAATDGSTSSGESLYLHRMVHQIVRNDMPEDERHEFAAVVRRALASADPGRPTDTRHWGEYAEIVPHLKYADVLDSPDPGVQRLVLNCLGYLHLSGRYAAGVELAERALEAWRELLGDTHPVIWELTAHHTNLLRSTGDYRRTEAVDRAAVEHLREERGELDPDHLRAAAGLAADLRGLGRYGEALELTRRLLTSCLDLLGEQDSRTLDAQHDLGFSLRLLGRYEEALDVDRRTLEARRALLSGRHPGILLSETSCATDLRLLGHYAEAESAQATNARAQRAVMGSDNPQTLRAEHNLALCQYRAGDREKAGKLFSRVLERYERTLGETDPLTLAAAVSQSCFAREYGDIDQAGAASESLIARYEAMLTDGHPFTIGARANHVLLLRQVGARDEARFGAEKALTAMAAAMGESHPWTLGCAINAAAVRQFIGDVESAAELSGSTVARATDALGRTHPLTLSARVAQAADLRGLREHRRAEEIEQEVLADLAATLGSRHVHTVSARSRNRPYWDFEPQPT | failed |
| MDESCERVKAIYNEHEYLEAYSRHTDLRVDVDPKLAIGGMWEEIGKLQFEYLTKKGLQCHHELLDIGCGTLRGGRHFIKYLNSSNYYGVDISFKAIESAKELVVEEKLSDKKPQLLLDKNKSLNFNCYLGKTFDFIFAQSVFTHLKPEHISECFENIGQIMNEDSAFYFTYNNSVEYREVGFKNFYYPFDFFENLVERNGFKLKECKSEYAHPRGQIMVEIVKR | failed |
